Source: patent US20240327522A1 (Genentech, published 2024)

T1: recombinant human αvβ8 protein (PARS-17102) (human)
T1 construct: also called hu.aVb8.17102; not shown: C-terminal acid/basic coils and any purification tags
T1 alpha: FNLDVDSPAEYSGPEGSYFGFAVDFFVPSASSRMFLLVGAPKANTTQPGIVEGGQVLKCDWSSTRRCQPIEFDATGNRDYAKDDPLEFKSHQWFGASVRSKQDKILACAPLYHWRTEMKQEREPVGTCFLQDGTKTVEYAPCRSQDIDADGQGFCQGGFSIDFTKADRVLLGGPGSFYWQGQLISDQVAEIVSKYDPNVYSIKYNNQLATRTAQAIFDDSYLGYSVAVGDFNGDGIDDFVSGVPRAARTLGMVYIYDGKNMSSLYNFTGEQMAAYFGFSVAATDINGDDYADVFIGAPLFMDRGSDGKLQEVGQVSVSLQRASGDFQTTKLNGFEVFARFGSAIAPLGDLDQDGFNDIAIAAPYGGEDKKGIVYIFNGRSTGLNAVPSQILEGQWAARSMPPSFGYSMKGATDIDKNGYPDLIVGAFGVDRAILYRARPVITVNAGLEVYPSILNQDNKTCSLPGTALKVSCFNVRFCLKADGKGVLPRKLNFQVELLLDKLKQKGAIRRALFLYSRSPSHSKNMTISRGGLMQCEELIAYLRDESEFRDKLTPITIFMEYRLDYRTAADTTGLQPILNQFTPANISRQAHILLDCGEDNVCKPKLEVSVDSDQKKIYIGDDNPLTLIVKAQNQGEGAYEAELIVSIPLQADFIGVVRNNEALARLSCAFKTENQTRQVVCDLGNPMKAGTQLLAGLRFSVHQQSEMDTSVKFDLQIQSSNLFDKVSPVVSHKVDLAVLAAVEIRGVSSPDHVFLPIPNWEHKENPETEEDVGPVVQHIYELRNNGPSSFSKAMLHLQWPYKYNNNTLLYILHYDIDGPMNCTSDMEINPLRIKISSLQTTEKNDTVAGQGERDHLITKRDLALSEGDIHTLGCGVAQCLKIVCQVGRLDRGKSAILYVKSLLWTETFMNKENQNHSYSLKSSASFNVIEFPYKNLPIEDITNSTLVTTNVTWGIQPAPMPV
T1 beta: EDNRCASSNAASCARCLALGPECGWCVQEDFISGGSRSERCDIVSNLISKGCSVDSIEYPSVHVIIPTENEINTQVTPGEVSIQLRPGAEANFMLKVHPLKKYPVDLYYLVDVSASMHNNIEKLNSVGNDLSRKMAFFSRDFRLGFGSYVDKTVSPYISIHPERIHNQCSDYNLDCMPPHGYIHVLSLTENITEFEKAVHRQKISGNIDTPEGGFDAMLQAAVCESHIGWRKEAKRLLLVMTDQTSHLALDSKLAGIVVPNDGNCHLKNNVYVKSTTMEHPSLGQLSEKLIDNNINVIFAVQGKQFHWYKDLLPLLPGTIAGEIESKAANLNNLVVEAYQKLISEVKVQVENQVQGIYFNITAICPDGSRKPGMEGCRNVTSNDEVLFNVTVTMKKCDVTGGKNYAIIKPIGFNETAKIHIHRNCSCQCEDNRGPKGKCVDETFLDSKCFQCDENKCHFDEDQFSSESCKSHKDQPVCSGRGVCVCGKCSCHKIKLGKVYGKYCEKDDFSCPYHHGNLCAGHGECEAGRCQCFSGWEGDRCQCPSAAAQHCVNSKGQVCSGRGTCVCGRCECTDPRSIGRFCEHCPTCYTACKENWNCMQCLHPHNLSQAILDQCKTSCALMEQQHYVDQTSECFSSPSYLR

B1: Rb.aVb8-65 (antibody, V domains shown)
VH: QSVEESGGRLVTPGTPLTLTCTVSGIDLSNYAMIWVRQAPGKGLEWIGIISSSDRIWYASWVKGRFTISKTSSTTVDLQMTSLTTEDTATYFCSRSVSNSYFDGWNLWGPGTLVTVSS
VL: DIVMTQTPASVEAAVGGTVTIKCQASENINSLLAWYQQKPGQPPKLLIYRASTLASGVPSRFRGSGSGTQFTLTISDLECDDAATYYCQSNYGFTGSGAFFYGFGGGTEVVVE
notes: Recombinant rabbit monoclonal antibody expressed in Expi293 cells; also called rb.αvβ8-65; rabbit αvβ8-65
B2: αvβ8-65 in the murine Fc format (antibody, V domains shown)
VH: EVQLLESGGGLVQPGGSLRLSCAASGIDLSNYAMIWVRQAPGKGLEWVGIISSSDRIWYASWVKGRFTISRDNSKNTLYLQMNSLRAEDTAVYYCSRSVSNSYFDGWNLWGQGTLVTVSS
VL: DIQMTQSPSSVSASVGDRVTITCQASENINSLLAWYQQKPGKAPKLLIYRASTLASGVPSRFSGSGSGTDFTLTISSLQPEDFATYYCQSNYGFTGSGAFFYGFGQGTKVEIK
B3: Rb.aVb8-92 (antibody, V domains shown)
VH: QSVEESGGRLVTPGTPLTLTCTVSGFSLSSYAMGWVRQAPGKGLEWIGVIRKDDNTYYGNWAKGRFTISRTSTTVDLKMTSLTAADTATYFCARALNTYVGFPYFNIWGPGTLVTVSS
VL: AAVLTQTPSPVSAAVGGTVSISCQSIKSVGDNKWLAWYQQKPGQPPKLLIYDASDLASGVPSRFKGSGSRTQFTLTISDLQCDDAATYYCAGSVSSGDSGFGGGTEVVVA
notes: Recombinant rabbit monoclonal antibody expressed in Expi293 cells; also called rb.αvβ8-92; rabbit αvβ8-92

How the values were obtained:
[1] = target: recombinant human αvβ8 protein (PARS-17102) (human); assay: SPR, Biacore T200, anti-murine Fc capture (murine Fc format), human αvβ8 analyte 0-50 nM, 37 C, 1:1 model (FIG. 10)
[2] = target: human αvβ8 endogenously expressed on cells (human); assay: cell-based or functional assay
[3] = target: recombinant human αvβ8 protein (PARS-17102) (human); assay: SPR, Biacore kinetic screen at 37 °C, 1:1 binding fit; antibody as ligand, hu.aVb8-17102 as sample; in the presence of divalent cations according to
[4] = target: human αvβ8 endogenously expressed on cells (human)
[5] = target: T1, recombinant human αvβ8 protein …; assay: SPR, Biacore T200, antibody captured on protein A chip, aVb8 as analyte, 37 C, 1:1 Langmuir model
Procedure: (§1) The binding affinity of the antibodies was determined by BIAcore™ T200 machine. For kinetics measurements, antibodies were captured on research grade protein A chip (Cytiva, USA) to achieve approximately 60 RU. Ten-fold serial dilutions of human, murine and cyno aVb8 were injected in the same running buffer as above at 37° C. with a flow rate of 100 μL/min. Association rates (ka) and dissociation rates (kd) were calculated using a 1:1 Langmuir binding model (BIAcore™ T200 Evaluation Software version 2.0). The equilibrium dissociation constant (KD) was calculated as the ratio kd/ka. […]

[6] = target: T2, recombinant mouse αvβ8 protein (PARS-17103) (murine, UniProt P43406 31-988; Q0VBD0 43-681, limits assumed); assay: as above
T2 construct: Made in house; also called mu.aVb8.17103
Procedure: as §1

cyno.aVb8.13650 = target: T3, cyno.aVb8.13650 (cynomolgus, UniProt A0A2K5WCD3 31-992; G7P0S0 43-684); assay: as above
T3 construct: Carries another lot/construct number than cyno.aVb8-19393; kept apart; also called cynomolgus αvβ8
Procedure: as §1

[7] = target: T1, recombinant human αvβ8 protein …; assay: SPR, Biacore kinetic screen at 37 °C, 1:1 binding fit; antibody as ligand, hu.aVb8-17102 as sample; in the presence of divalent cations according to
[8] = target: recombinant human αvβ8 protein (PARS-17102) (human); assay: SPR, Biacore T200, anti-murine Fc capture (murine Fc format), human αvβ8 analyte 0-50 nM, 37 C, 1:1 model (FIG. 10); below the instrument's detection limit
[9] = target: T1, recombinant human αvβ8 protein …; assay: SPR, Biacore kinetic screen at 37 °C, 1:1 binding fit flagged with a warning sign; antibody as ligand, hu.aVb8-17102 as sample; in the presence of divalent cations according to

T2 sequence (P43406 31-988 limits assumed, chain 1 of 2): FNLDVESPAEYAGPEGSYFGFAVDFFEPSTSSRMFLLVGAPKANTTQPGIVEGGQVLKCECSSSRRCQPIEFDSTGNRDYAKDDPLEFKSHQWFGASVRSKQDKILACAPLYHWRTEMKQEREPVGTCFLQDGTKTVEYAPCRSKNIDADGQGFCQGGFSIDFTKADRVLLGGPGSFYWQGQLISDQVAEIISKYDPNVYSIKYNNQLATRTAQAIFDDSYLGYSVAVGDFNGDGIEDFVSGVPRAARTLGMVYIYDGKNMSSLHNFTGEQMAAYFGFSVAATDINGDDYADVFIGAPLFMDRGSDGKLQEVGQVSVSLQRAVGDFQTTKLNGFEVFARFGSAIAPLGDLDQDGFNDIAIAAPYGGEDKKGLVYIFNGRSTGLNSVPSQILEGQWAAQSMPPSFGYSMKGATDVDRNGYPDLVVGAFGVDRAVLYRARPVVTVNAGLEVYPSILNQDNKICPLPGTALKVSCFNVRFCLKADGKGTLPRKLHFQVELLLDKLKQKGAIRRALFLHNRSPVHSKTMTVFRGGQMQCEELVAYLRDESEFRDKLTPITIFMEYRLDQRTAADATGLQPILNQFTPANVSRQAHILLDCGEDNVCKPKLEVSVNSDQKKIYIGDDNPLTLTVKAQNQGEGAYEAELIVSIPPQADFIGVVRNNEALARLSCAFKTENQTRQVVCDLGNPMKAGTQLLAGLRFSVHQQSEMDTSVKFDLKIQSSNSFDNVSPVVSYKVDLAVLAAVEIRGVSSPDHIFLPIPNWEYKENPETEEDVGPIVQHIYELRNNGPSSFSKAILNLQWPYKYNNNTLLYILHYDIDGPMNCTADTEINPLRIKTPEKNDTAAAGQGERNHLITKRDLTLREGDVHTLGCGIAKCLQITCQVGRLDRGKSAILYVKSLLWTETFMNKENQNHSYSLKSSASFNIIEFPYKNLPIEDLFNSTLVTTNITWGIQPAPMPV
T2 sequence (Q0VBD0 43-681 limits assumed, chain 2 of 2): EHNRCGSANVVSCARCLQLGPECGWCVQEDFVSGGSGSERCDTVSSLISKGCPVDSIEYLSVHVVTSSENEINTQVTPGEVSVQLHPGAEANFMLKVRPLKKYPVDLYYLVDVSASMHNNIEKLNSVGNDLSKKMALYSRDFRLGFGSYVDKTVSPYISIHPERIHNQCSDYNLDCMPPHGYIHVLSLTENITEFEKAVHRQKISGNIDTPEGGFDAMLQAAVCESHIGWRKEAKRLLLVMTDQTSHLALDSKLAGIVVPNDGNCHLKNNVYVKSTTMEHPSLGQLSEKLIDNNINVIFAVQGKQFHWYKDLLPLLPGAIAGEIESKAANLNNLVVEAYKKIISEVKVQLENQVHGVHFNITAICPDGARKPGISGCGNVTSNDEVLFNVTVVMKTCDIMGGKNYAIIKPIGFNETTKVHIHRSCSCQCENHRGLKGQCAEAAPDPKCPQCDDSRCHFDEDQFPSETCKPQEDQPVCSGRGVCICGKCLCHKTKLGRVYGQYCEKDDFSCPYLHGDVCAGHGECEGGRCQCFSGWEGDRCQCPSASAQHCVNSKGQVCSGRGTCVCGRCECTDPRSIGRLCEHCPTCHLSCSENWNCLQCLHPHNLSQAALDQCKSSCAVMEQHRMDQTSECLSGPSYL

Row | Molecule | Kd [1] | koff [1] | kon [1] | IC50 (nM), experiment #1: LN-229 + 3T3-Nano-human GARP/LTGFβ1 (WT) co-culture, NanoLuc reporter [2] | IC50 (nM), experiment #2: LN-229 + 3T3-Nano-human GARP/LTGFβ1 (WT) co-culture, NanoLuc reporter [2] | IC50 (nM), experiment #3: LN-229 + 3T3-Nano-human GARP/LTGFβ1 (non-releasable, NR) co-culture, NanoLuc reporter [2] | IC50 (nM), experiment #4: LN-229 + 3T3-Nano-human GARP/LTGFβ3 (WT) co-culture, NanoLuc reporter [2] | Kd [5] | koff [5] | kon [5] | Kd [6] | koff [6] | kon [6] | Kd (cyno.aVb8.13650) | koff (cyno.aVb8.13650) | kon (cyno.aVb8.13650) | further results
1 | C6D4 mIgG2a.LALAPG (antibody) | 1.06 nM | 9.3e-05 s⁻¹ | 87800 M⁻¹ s⁻¹ | 0.63 nM | 1.45 nM | 0.24 nM | 0.78 nM | – | – | – | – | – | – | – | – | – | Kd [3]: 3.8 nM; koff [3]: 0.000266 s⁻¹; kon [3]: 69900 M⁻¹ s⁻¹; IC50 of the TGFb1 reporter signal, co-culture of LN-229 cells with 3T3-Nano GARP/LTGFb1 reporter cells [4]: 2.11 nM
2 | ADWA11 mIgG2a.LALAPG (antibody) | 0.451 nM | 5.33e-05 s⁻¹ | 118000 M⁻¹ s⁻¹ | 0.95 nM | 1.51 nM | 0.34 nM | 0.79 nM | – | – | – | – | – | – | – | – | – | –
3 | Isotype control (antibody) | – | – | – | > 333 nM | > 333 nM | > 333 nM | > 333 nM | – | – | – | – | – | – | – | – | – | –
4 | B1 | – | – | – | – | – | – | – | 0.7 nM | 0.000131 s⁻¹ | 187000 M⁻¹ s⁻¹ | 0.9 nM | 0.000132 s⁻¹ | 146000 M⁻¹ s⁻¹ | 1.94 nM | 0.000121 s⁻¹ | 62400 M⁻¹ s⁻¹ | Kd [7]: 1.54 nM; koff [7]: 0.000349 s⁻¹; kon [7]: 227000 M⁻¹ s⁻¹
5 | B2 | < 0.0258 nM | – | 258000 M⁻¹ s⁻¹ | – | – | – | – | – | – | – | – | – | – | – | – | – | koff [8]: < 1e-05 s⁻¹
6 | B3 | – | – | – | – | – | – | – | 1.6 nM | 0.000164 s⁻¹ | 102000 M⁻¹ s⁻¹ | 1.86 nM | 0.000184 s⁻¹ | 98600 M⁻¹ s⁻¹ | 6.91 nM | 0.000293 s⁻¹ | 42400 M⁻¹ s⁻¹ | Kd [9]: 671 nM; koff [9]: 0.000777 s⁻¹; kon [9]: 1160 M⁻¹ s⁻¹
